From paper PMC4477857 (The Journal of Cell Biology, 2015) come the findings set out here.

The target in the test is T1, purified recombinant STIL (human, UniProt Q15468 1-1287).
T1 sequence (looked up): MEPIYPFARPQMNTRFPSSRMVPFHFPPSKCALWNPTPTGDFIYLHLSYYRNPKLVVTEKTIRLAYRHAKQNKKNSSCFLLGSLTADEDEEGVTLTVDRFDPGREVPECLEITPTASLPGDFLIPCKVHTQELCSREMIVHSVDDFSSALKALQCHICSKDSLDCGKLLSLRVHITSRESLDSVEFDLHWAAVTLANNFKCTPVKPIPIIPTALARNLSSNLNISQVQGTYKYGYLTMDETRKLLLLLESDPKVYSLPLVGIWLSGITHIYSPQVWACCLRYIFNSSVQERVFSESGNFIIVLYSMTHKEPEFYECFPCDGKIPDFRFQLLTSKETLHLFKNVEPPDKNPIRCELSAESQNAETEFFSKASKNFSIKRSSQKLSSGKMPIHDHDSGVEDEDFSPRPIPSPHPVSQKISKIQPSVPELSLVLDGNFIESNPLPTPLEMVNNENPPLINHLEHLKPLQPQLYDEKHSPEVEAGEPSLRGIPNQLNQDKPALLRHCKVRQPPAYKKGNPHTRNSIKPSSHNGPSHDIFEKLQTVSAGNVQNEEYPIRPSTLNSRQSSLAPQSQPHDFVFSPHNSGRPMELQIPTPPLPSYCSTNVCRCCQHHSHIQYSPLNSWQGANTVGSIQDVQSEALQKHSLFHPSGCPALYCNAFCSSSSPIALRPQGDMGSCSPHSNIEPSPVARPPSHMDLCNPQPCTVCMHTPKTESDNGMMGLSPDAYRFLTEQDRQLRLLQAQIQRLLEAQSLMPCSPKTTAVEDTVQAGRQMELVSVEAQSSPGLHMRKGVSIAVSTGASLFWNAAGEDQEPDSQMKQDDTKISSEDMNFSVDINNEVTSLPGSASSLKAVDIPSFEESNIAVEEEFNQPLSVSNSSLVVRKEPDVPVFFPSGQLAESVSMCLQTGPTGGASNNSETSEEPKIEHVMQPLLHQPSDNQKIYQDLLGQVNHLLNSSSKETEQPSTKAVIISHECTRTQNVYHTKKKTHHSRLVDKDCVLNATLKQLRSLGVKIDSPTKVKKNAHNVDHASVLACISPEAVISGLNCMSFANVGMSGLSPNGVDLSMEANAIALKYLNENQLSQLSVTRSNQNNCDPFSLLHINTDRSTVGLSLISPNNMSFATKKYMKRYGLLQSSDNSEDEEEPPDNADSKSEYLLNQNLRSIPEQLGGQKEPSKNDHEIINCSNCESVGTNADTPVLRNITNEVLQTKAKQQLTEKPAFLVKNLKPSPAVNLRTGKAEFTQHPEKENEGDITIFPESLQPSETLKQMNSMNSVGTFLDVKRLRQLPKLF
Description: pull-down.

B1: GST-hPlk4 (enzyme, human, UniProt O00444 1-970, looked up)
chain: MATCIGEKIEDFKVGNLLGKGSFAGVYRAESIHTGLEVAIKMIDKKAMYKAGMVQRVQNEVKIHCQLKHPSILELYNYFEDSNYVYLVLEMCHNGEMNRYLKNRVKPFSENEARHFMHQIITGMLYLHSHGILHRDLTLSNLLLTRNMNIKIADFGLATQLKMPHEKHYTLCGTPNYISPEIATRSAHGLESDVWSLGCMFYTLLIGRPPFDTDTVKNTLNKVVLADYEMPSFLSIEAKDLIHQLLRRNPADRLSLSSVLDHPFMSRNSSTKSKDLGTVEDSIDSGHATISTAITASSSTSISGSLFDKRRLLIGQPLPNKMTVFPKNKSSTDFSSSGDGNSFYTQWGNQETSNSGRGRVIQDAEERPHSRYLRRAYSSDRSGTSNSQSQAKTYTMERCHSAEMLSVSKRSGGGENEERYSPTDNNANIFNFFKEKTSSSSGSFERPDNNQALSNHLCPGKTPFPFADPTPQTETVQQWFGNLQINAHLRKTTEYDSISPNRDFQGHPDLQKDTSKNAWTDTKVKKNSDASDNAHSVKQQNTMKYMTALHSKPEIIQQECVFGSDPLSEQSKTRGMEPPWGYQNRTLRSITSPLVAHRLKPIRQKTKKAVVSILDSEEVCVELVKEYASQEYVKEVLQISSDGNTITIYYPNGGRGFPLADRPPSPTDNISRYSFDNLPEKYWRKYQYASRFVQLVRSKSPKITYFTRYAKCILMENSPGADFEVWFYDGVKIHKTEDFIQVIEKTGKSYTLKSESEVNSLKEEIKMYMDHANEGHRICLALESIISEEERKTRSAPFFPIIIGRKPGSTSSPKALSPPPSVDSNYPTRERASFNRMVMHSAASPTQAPILNPSMVTNEGLGLTTTASGTDISSNSLKDCLPKSAQLLKSVFVKNVGWATQLTSGAVWVQFNDGSQLVVQAGVSSISYTSPNGQTTRYGENEKLPDYIKQKLQCLSSILLMFSNPTPNFH
Regarding B1, the binding result is listed as “binds”.
